Assays:
c-Src SH2 = assay: SH2 binding enrichment of the phosphorylated peptide, bacterial display (enrichment ratio); higher = better substrate or ligand; peptides without Tyr show the background
SHP2-C SH2 = assay: as above
Grb2 SH2 = Grb2 SH2 (UniProt P62993); assay: as above
FGFR1 = FGFR1 (UniProt P11362); assay: phosphorylation enrichment, bacterial display (enrichment ratio); higher = better substrate or ligand; peptides without Tyr show the background
Jak2 = Jak2 (UniProt O60674); assay: as above
EPHB2 = EPHB2 (UniProt P29323); assay: as above
c-Abl (mouse) = assay: as above
MERTK = MERTK (UniProt Q12866); assay: as above
FGFR3 = FGFR3 (UniProt P22607); assay: as above
AncSZ = assay: as above
Hck = Hck (UniProt P08631); assay: as above
Fes = Fes (UniProt P07332); assay: as above
EPHB1 = EPHB1 (UniProt P54762); assay: as above
Fyn = Fyn (UniProt P06241); assay: as above
c-Src = assay: as above
Fer (mouse) = assay: as above
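For SH2 binding enrichment of the phosphorylated peptide, bacterial display in this document: peptide library displayed on the E. coli surface as eCPX fusions, selected cells deep-sequenced, score is each peptide's frequency after selection divided by its frequency in the input.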
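For phosphorylation enrichment, bacterial display in this document: 11-residue human phosphosite peptides and single-mutation variants displayed on the E. coli surface, counted by deep sequencing, each peptide's frequency after selection divided by its frequency in the unselected input library; frequency after pTyr selection over input frequency; kinase dosed for 20-30% of maximal phosphorylation in three min.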

Hck, sequence (P08631 whole entry, looked up): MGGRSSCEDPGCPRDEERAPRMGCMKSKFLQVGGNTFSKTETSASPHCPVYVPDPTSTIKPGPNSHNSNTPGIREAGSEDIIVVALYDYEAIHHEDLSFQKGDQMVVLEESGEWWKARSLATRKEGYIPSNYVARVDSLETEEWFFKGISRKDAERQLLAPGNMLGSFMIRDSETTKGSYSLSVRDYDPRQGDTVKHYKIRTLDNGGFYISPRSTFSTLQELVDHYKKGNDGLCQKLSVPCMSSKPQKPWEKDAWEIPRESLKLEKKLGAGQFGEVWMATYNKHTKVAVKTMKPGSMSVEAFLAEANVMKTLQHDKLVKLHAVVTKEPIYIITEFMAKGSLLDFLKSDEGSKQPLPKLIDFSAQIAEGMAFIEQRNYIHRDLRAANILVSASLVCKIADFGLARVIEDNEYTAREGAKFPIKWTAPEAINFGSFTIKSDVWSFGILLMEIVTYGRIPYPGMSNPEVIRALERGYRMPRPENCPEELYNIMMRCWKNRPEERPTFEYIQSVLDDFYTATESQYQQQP
Fyn, sequence (P06241 whole entry, looked up): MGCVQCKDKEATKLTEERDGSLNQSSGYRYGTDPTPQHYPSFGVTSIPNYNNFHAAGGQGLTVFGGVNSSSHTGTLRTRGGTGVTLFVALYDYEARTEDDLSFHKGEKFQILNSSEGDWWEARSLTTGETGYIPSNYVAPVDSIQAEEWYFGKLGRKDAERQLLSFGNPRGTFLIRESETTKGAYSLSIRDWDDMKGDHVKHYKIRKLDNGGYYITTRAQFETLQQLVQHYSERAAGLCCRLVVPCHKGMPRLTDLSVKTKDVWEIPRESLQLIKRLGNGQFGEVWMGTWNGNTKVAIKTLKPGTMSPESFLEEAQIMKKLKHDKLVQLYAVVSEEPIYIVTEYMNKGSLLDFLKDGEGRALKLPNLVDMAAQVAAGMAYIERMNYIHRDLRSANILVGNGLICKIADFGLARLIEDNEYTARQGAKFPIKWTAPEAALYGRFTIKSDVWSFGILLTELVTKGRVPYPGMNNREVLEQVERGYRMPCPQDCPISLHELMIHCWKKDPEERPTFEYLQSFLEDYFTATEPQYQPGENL
FGFR3, sequence (P22607 whole entry, looked up): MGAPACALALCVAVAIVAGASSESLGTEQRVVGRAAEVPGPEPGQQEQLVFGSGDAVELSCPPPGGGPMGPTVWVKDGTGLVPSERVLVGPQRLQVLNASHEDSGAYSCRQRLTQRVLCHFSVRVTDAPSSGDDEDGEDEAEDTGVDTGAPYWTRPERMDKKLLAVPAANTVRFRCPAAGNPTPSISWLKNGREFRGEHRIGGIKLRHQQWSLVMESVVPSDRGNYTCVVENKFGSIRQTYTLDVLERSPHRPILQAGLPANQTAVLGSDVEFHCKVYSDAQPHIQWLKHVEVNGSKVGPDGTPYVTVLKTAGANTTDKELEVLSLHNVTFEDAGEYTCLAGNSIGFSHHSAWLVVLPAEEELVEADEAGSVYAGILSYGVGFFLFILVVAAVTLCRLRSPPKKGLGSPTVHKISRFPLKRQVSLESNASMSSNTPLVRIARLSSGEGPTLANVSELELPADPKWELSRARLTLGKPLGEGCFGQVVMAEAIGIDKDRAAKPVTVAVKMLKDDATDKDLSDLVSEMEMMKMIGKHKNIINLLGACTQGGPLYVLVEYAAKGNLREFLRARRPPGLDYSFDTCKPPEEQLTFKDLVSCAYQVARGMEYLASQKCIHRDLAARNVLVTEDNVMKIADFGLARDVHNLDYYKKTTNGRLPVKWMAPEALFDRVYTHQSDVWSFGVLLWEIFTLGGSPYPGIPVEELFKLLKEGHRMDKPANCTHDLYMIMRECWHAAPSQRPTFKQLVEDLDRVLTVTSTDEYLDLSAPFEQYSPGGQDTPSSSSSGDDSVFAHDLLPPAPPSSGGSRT
FGFR1, sequence (P11362 whole entry, looked up): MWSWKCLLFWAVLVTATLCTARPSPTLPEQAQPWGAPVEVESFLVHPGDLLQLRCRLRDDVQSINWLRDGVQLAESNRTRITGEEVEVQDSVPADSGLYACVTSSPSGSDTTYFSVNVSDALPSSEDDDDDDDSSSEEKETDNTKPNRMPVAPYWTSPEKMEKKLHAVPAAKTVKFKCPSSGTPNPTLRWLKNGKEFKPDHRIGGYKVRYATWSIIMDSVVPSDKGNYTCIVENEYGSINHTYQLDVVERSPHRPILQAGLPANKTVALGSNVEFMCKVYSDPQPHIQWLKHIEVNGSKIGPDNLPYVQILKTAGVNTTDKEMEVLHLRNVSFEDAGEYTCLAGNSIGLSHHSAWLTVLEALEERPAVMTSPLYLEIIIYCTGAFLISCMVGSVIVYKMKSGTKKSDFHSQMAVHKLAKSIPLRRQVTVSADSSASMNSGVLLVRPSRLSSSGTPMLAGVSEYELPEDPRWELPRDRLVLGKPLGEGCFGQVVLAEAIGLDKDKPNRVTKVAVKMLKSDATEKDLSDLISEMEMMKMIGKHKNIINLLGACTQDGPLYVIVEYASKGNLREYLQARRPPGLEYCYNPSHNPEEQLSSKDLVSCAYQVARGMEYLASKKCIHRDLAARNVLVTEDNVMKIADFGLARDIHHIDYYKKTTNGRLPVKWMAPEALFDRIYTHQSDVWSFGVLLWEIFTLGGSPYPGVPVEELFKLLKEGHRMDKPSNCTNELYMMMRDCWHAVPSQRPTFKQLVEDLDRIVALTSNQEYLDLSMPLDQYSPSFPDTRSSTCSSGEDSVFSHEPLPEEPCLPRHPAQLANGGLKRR
Grb2 SH2, sequence (P62993 whole entry, looked up): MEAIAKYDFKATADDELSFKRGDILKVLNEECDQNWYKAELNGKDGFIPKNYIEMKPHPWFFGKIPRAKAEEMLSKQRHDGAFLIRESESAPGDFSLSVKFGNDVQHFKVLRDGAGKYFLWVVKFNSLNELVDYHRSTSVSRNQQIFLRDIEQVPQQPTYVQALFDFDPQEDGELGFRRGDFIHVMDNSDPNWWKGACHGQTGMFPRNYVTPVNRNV
Fes, sequence (P07332 whole entry, looked up): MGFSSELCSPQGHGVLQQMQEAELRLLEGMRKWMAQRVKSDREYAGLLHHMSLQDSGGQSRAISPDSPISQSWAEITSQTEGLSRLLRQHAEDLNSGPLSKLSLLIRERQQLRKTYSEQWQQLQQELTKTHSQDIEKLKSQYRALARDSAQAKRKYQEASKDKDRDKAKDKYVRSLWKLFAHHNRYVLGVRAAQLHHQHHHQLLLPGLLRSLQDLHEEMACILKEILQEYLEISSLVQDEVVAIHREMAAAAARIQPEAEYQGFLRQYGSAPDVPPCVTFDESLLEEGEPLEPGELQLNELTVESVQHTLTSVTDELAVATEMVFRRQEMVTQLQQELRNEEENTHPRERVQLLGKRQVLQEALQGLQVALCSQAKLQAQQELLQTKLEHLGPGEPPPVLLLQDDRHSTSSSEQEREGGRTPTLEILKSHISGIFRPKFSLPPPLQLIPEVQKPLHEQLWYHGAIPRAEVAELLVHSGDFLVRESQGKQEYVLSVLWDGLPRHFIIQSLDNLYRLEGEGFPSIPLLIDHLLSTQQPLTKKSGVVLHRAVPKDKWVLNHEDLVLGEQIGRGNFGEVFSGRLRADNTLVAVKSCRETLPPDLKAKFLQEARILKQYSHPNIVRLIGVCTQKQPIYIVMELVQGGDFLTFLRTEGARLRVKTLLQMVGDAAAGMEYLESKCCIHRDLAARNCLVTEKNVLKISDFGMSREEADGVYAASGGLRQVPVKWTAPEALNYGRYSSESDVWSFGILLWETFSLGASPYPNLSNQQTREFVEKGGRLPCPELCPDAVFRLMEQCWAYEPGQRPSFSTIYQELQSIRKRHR
Jak2, sequence (O60674 whole entry, looked up): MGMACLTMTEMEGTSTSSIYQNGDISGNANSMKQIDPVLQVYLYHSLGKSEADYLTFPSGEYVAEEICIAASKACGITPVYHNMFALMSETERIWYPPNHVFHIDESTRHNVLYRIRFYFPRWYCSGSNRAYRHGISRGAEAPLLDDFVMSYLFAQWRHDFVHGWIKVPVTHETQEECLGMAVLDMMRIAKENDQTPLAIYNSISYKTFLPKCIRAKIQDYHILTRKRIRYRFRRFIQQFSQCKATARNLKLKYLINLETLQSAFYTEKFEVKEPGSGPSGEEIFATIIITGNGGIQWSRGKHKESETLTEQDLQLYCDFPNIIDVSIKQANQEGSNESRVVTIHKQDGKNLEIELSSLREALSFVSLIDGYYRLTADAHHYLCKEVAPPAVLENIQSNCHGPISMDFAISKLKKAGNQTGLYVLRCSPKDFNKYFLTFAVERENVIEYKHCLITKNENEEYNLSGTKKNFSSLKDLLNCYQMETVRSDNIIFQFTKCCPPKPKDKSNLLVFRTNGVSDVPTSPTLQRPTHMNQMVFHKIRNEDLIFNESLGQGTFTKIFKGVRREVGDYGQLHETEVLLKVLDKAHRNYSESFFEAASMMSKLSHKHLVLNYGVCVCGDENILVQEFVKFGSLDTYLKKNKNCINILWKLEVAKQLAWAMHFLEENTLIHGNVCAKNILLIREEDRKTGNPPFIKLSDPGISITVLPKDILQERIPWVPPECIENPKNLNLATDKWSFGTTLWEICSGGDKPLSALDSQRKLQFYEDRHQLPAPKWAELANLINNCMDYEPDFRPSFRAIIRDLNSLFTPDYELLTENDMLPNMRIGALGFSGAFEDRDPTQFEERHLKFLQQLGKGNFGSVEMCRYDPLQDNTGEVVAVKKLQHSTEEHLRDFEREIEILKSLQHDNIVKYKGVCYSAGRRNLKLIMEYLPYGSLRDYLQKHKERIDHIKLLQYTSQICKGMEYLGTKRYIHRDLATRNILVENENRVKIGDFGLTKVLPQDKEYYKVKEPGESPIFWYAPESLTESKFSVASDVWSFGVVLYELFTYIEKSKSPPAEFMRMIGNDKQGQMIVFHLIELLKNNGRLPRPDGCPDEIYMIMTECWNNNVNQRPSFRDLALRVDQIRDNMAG

Sequence | SH2 binding enrichment (c-Src SH2) | SH2 binding enrichment (SHP2-C SH2) | SH2 binding enrichment (Grb2 SH2) | phosphorylation enrichment (FGFR1) | phosphorylation enrichment (Jak2) | phosphorylation enrichment (EPHB2) | phosphorylation enrichment (c-Abl (mouse)) | phosphorylation enrichment (MERTK) | phosphorylation enrichment (FGFR3) | phosphorylation enrichment (AncSZ) | phosphorylation enrichment (Hck) | phosphorylation enrichment (Fes) | phosphorylation enrichment (EPHB1) | phosphorylation enrichment (Fyn) | phosphorylation enrichment (c-Src) | phosphorylation enrichment (Fer (mouse))
ALAAPYVLFPG [CEFIP_Y1332_YF] | 3.49 | 1.21 | 0.839 | 3.79 | 1.21 | 0.452 | 0.598 | 1.29 | 2.44 | 0.775 | 0.641 | 0.726 | 0.581 | 0.739 | 4.54 | 0.543
ALADKYHGGGG [HBB_Y146_H144D] | 0.38 | 0.56 | 0.727 | 0.396 | 0.439 | 0.374 | 0.423 | 0.322 | 0.402 | 0.467 | 0.355 | 0.517 | 0.287 | 0.39 | 0.318 | 0.375
ALRASYTPSPV [ESS2_Y418_A423V] | 0.418 | 0.557 | 0.67 | 0.32 | 0.909 | 0.53 | 0.945 | 0.435 | 0.502 | 0.847 | 0.458 | 0.723 | 0.366 | 0.39 | 0.678 | 0.424
AMCVCYDGVEV [ADAMTSL2_Y594_R593C] | 0.815 | 0.589 | 0.736 | 0.511 | 1.03 | 0.589 | 0.816 | 0.41 | 0.882 | 1.42 | 0.655 | 1.31 | 0.585 | 0.68 | 1.02 | 1.41
ANAFIYDVQLP [L1CAM_Y420_V421D_YF] | 0.51 | 0.633 | 1.01 | 0.639 | 0.849 | 1.3 | 0.715 | 7.43 | 0.627 | 1.1 | 4.65 | 0.938 | 1.69 | 6.97 | 4.96 | 1.19
ANNPLYKEATP [ITGB3_Y773_S778P] | 0.471 | 0.763 | 0.869 | 0.41 | 0.657 | 0.533 | 0.623 | 0.521 | 0.479 | 0.58 | 0.4 | 0.764 | 0.45 | 0.402 | 0.374 | 0.372
ANRNVYEVEPT [MEGF10_Y1075] | 1.3 | 1.08 | 0.818 | 0.404 | 0.63 | 0.5 | 0.6 | 0.476 | 0.47 | 0.787 | 0.842 | 0.755 | 0.451 | 6.32 | 4 | 0.473
ANYTEYVATRW [CDKL5_Y171] | 0.515 | 0.998 | 0.915 | 2.97 | 0.737 | 9.4 | 0.948 | 1.05 | 2.27 | 1.04 | 0.886 | 0.96 | 8.12 | 0.945 | 1.11 | 0.601
ANYTEYVATSW [CDKL5_Y171_R175S] | 0.592 | 0.665 | 0.874 | 3.44 | 0.897 | 8.89 | 0.812 | 0.815 | 2.82 | 1.34 | 0.672 | 0.867 | 7.89 | 0.722 | 0.763 | 0.555
APSHAYHGGVL [ANO1_Y981] | 0.629 | 0.501 | 0.881 | 0.626 | 0.496 | 0.336 | 0.505 | 0.381 | 0.427 | 0.52 | 0.5 | 0.494 | 0.371 | 0.382 | 0.475 | 0.502
ARAGEYGAEAL [HBA1_Y25_H21R] | 0.487 | 0.667 | 0.923 | 0.473 | 0.697 | 0.469 | 0.571 | 0.379 | 0.524 | 0.866 | 0.432 | 0.829 | 0.465 | 0.655 | 0.396 | 0.383
ARSHIYTLASC [MEFV_Y741_F743L] | 4.4 | 0.693 | 0.965 | 0.541 | 0.802 | 0.58 | 0.803 | 1.17 | 0.68 | 1.05 | 0.95 | 1.13 | 0.598 | 2.13 | 2.07 | 0.657
ARVANYQRDGP [CAT_Y386] | 0.32 | 0.342 | 0.606 | 0.524 | 0.486 | 0.406 | 0.496 | 0.574 | 0.526 | 0.785 | 0.386 | 0.607 | 0.564 | 0.436 | 0.545 | 0.394
DCPASYKKKSM [PDGFRA_Y768_R764C] |  |  |  | 0.416 | 0.168 | 0.189 | 0.337 | 0.363 | 0.202 | 0.394 | 0.368 | 0.323 | 0.591 | 0.283 | 0.253 | 0.384
RVGVDYEGGGC [PLOD1_Y675] | 0.773 | 0.884 | 1.39 |  | 0.377 |  | 0.239 |  |  |  |  |  |  |  | 0.287 | 

Source: the supplement of paper PMC10065799, “High-throughput profiling of sequence recognition by tyrosine kinases and SH2 domains using bacterial peptide display” (eLife, 2023)
